Measurements taken from patent US20150098945A1 (Daiichi Sankyo, published 2015).

B1: humanized MAb1 antibody H-1143 (antibody, human IgG2, kappa, V domains shown)
VH: EVQLVESGGGLVQPGGSLRLSCAASGFTFSTYAMSWVRQAPGKGLEWVATISQGGTYTYYPDSVKGRFTISRDNAKNTLYLQMNSLRAEDTAVYYCARLIYYDYLDYWGQGTLVTVSS
VL: DIVMTQSPLSLPVTLGEPASISCRSSQSLENENKNLYLNWYLQKPGQSPQLLIYRVSNRFSGVPDRFSGSGSGTDFTLKISRVEAEDVGVYYCLQVTHVPWTFGPGTKVDIKR
notes: Human IgG2 / kappa constant regions; also called hMAb1-H2-type heavy chain + hMAb1-L2-type light chain
B2: anti-ROBO4 mouse monoclonal antibody MAb1 (antibody, mouse IgG1, V domains shown)
VH: EVQLVESGGGLVKPGGSLKLSCAASGFTFSTYAMSWVRQTPEKRLEWVATISNGGTYTYYPDSVKGRFTISRDNAENTLYLQMSSLRSEDTAMYFCARLIYYDYLDYWGHGTTLTVSS
VL: DAVMTQTPLSLPVSLGDQASISCRSSQSLENSNGNTYLNWYFQKPGQSPQLLIYRVSNRFSGVLDRFSGSGSGTDFTLKISRVEAEDFGVYFCLQVTHVPWTFGGGTKLEIKR
notes: Mouse IgG1 (gamma1), kappa light chain, purified from hybridoma supernatant; also called parent antibody MAb1

Columns and labels:
[1] = target: T1, mouse ROBO4 (pCI-mROBO4-transfected HEK293 cells) (mouse, UniProt Q8C310 28-1012); assay: flow cytometry (FC500), HEK293 cells transfected with pCI-mROBO4, FITC goat anti-human IgG Fc; control histogram IgG (human IgG)
T1 sequence: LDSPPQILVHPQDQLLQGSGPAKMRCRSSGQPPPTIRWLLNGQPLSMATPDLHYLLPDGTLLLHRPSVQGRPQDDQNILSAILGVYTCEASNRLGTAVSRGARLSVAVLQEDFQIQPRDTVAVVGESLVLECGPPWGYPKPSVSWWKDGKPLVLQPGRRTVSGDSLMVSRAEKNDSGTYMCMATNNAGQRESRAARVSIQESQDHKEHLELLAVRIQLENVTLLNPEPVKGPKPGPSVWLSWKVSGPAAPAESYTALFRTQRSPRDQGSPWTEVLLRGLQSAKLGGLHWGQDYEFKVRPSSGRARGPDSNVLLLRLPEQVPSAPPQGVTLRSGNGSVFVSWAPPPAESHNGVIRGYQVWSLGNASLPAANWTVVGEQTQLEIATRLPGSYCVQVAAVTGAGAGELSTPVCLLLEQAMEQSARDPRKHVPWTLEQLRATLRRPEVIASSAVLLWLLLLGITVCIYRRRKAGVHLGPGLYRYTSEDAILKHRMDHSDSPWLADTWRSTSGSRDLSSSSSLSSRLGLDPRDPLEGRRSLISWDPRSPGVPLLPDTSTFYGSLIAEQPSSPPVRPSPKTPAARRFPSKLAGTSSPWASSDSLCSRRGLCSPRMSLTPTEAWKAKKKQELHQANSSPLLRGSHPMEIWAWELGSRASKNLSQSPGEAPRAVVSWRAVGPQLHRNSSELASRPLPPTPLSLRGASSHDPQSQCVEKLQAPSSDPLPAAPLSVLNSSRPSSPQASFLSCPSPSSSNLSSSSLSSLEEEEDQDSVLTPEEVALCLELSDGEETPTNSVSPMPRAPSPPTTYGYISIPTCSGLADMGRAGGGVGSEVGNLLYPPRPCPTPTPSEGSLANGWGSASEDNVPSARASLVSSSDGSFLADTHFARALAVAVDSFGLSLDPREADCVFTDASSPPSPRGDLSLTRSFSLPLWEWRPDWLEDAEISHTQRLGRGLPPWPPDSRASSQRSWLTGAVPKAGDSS

[2] = target: T2, N-terminal FLAG-tagged full-length human ROBO4 (pCI-FLAG-hROBO4-28) (human, UniProt Q8WZ75 28-1007); assay: flow cytometry, HEK293 cells transfected with pCI-FLAG-hROBO4-28, antibody at 10 µg/mL, anti-mouse IgG FITC; control histogram IgG (Mouse IgG2a)
T2 construct: On transfected HEK293 cells
T2 sequence: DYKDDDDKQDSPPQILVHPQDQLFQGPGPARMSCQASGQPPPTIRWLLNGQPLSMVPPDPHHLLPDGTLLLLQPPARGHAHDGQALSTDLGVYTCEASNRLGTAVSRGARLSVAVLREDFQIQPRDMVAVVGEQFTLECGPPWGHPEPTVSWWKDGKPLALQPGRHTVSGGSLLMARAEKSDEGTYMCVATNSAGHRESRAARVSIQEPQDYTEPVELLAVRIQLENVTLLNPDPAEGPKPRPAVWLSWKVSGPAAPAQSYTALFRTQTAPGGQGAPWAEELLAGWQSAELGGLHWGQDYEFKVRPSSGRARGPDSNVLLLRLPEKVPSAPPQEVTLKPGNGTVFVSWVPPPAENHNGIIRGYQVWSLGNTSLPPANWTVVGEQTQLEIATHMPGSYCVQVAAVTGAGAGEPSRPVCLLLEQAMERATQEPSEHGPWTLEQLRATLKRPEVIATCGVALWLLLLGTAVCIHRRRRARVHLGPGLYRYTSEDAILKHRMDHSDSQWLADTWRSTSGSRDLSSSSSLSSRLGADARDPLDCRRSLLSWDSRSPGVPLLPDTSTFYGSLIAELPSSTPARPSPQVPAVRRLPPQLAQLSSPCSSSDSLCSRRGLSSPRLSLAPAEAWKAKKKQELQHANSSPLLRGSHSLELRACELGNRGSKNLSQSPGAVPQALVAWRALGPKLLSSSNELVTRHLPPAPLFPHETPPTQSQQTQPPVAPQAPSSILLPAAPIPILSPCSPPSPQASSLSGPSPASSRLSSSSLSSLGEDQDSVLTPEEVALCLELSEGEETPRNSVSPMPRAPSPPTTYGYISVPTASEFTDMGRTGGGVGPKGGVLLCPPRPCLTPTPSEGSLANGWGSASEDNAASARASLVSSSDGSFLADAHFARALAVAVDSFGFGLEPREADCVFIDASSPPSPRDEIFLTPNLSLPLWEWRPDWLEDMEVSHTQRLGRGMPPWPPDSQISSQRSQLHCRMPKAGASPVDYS
Method: HEK293 cells were inoculated at a concentration of 1.5×10⁶ cells/dish to a 60-mm dish (manufactured by Corning Inc.) and cultured overnight in a DMEM medium containing 10% FBS at 37° C. under 5% CO₂ conditions. […] On the next day, the expression vector-transfected cells were treated with TrypLE Express (manufactured by Life Technologies Corp.), washed with PBS containing 5% FBS, and then suspended in PBS containing 5% FBS. The obtained cell suspension was used in flow cytometry analysis.
Each cell suspension prepared in 4)-5-1 was centrifuged, and the supernatant was removed. Then, MAb1, a positive control Monoclonal ANTI-FLAG M2 antibody produced in mouse, or a negative control Mouse IgG2a was added at a concentration of 10 μg/mL to 2×10⁵ expression vector-transfected cells, and the resulting suspension was left standing at 4° C. for 1 hour. The cells were washed once with PBS containing 5% FBS. Then, Anti-Mouse IgG FITC conjugate diluted 1000-fold with PBS containing 5% FBS was added thereto, and the resulting suspension was left standing at 4° C. for 1 hour. […] Data was analyzed using Flowjo. The histogram of FITC fluorescence intensity was prepared. The antibody was determined to bind to a cell when the histogram of MAb1 was shifted to a stronger fluorescence intensity region compared with the histogram of the negative control Mouse IgG2a. […]

Row | Binder | binding result [1] | binding result [2]
1 | B1 | no binding (tested: 10 µg/mL) | –
2 | B2 | – | binds
